From patent US7223850 (RIGEL PHARMACEUTICALS, dated 2007)

Target: T1, HA-tagged RIP (UniProt Q13546 1-671, limits assumed)
T1 construct: also called HA-RIP; not shown: HA tag
T1 sequence (looked up): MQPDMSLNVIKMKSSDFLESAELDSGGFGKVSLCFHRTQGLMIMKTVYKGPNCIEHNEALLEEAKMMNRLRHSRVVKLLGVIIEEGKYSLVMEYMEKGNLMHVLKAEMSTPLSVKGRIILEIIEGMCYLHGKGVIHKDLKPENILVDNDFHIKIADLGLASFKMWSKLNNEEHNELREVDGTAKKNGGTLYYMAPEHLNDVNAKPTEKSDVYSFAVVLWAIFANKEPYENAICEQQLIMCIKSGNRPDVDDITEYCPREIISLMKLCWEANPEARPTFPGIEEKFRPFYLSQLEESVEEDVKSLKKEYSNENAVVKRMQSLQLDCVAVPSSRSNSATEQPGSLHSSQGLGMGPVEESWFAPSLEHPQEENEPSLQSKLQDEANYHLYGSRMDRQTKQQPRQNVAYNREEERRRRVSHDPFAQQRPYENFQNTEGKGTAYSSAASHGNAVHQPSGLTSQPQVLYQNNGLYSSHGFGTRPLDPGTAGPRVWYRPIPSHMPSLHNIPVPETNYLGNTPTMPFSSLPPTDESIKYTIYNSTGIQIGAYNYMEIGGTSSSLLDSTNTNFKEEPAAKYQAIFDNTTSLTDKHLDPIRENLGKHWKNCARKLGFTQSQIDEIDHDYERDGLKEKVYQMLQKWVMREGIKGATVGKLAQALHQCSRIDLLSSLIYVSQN
Experiment: co-immunoprecipitation, HA-RIP and Flag-Apop3 mutant co-transfected in Phoenix-A (293 T) cells, anti-Flag immunoblot

| Binder | binding result |
| --- | --- |
| Flag-tagged Apop3(1-251) (enzyme, not shown: Flag tag) MSCVKLWPSGAPAPLVSIEELENQELVGKDGFGTVFRAQHRKWGYDVAVKIVNSKAISREVKAMASLDNEFVLRLEGVIEKVNWDQDPKPALVTKFMENGSLSGLLQSQCPRPWPLLCRLLKEVVLGMFYLHDQNPVLLHRDLKPSNVLPDPELHVKLADFGLSTFQGGSQSGTGSGEPGGTLGYLAPELFVNVNRKASTASDVYSFGILMWAVLAGREVELPTEPSLVYEAVCNRQNRPSLAELPQAGPE | no binding |
| Flag-tagged Apop3(1-196) (enzyme, not shown: Flag tag) MSCVKLWPSGAPAPLVSIEELENQELVGKDGFGTVFRAQHRKWGYDVAVKIVNSKAISREVKAMASLDNEFVLRLEGVIEKVNWDQDPKPALVTKFMENGSLSGLLQSQCPRPWPLLCRLLKEVVLGMFYLHDQNPVLLHRDLKPSNVLPDPELHVKLADFGLSTFQGGSQSGTGSGEPGGTLGYLAPELFVNVNR | no binding |
| Flag-tagged Apop3(287-518) (other, not shown: Flag tag) FQMVENNMNAAVSTVKDFLSQLKSSNRRFSIPESGQGGTEMDGFRRTIENQHSRNDVMVSEWLNKLNLEEPPSSVPKKCPSLTKRSRAQEEQVPQAWTAGTSSDSMAQPPQTPETSTFRNQMPSPTSTGTPSPGPRGNQGAERQGMNWSCRTPEPNPVTGRPLVNIYNCSGVQVGDNNYLTMQQTTALPTWGLAPSGKGRGLQHPPPVGSQEGPKDPEAWSRPQGWYNHSGK | no binding |
